Changes are numbered by the printed parent chain.

The results in this text go back to paper PMC8324831, “A synthetic nanobody targeting RBD protects hamsters from SARS-CoV-2 infection” (Nature Communications, 2021).

B1: SR6 (VHH)
VHH: QVQLVESGGGLVQAGGSLRLSCAASGFPVGQQEMTWYRQAPGKEREWVAAILSEGNGTEYADSVKGRFTISRDNAKNTVYLQMNSLKPEDTAVYYCAVYVGATYIGQGTQVTVS
B2: SR10 (VHH)
VHH: B1 VHH with G30N, Q31K, Q32R, L52T, N56R, G57S, A97Y, Y99F, A102S, T103S
B3: SR7 (VHH)
VHH: QVQLVESGGGLVQAGGSLRLSCAASGFPVWSNEMEWYRQAPGKEREWVAAITSYGTTEYADSVKGRFTISRDNAKNTVYLQMNSLKPEDTAVYYCYVYVGYSYIGQGTQVTVS
B4: SR31 (VHH)
VHH: QVQLVESGGGLVQAGGSLRLSCAASGFPVWQGEMAWYRQAPGKEREWVAAISSMGYKTYYADSVKGRFTISRDNAKNTVYLQMNSLKPEDTAVYYCAVMVGFWYAGQGTQVTVS
B5: SR32 (VHH)
VHH: B4 VHH with W30N, Q31V, G32A, E33K, S52D, M54H, Y56A, K57Q, Y59H, M99H
B6: SR1 (VHH)
VHH: QVQLVESGGGLVQAGGSLRLSCAASGFPVAAYEMEWYRQAPGKEREWVAAINSMGDQTYYADSVKGRFTISRDNAKNTVYLQMNSLKPEDTAVYYCYVYVGFSYIGQGTQVTVS
B7: SR19 (VHH)
VHH: B6 VHH with A30N, A31T, Y32M, M54S, D56Q, Q57E, F102Q
B8: SR29 (VHH)
VHH: B1 VHH with G30S, Q32R, L52E, N56E, G57Q, A97Y, A102R, T103S
B9: SR23 (VHH)
VHH: B6 VHH with A30Y, A31T, Y32S, N52A, M54T, D56A, Q57E, Y59A, F102R
B10: SR18 (VHH)
VHH: B6 VHH with A30W, A31F, Y32Q, N52S, M54Q, D56T, Q57H, F102A, I105L
B11: SR9 (VHH)
VHH: B6 VHH with A30I, N52T, M54S, D56T, Q57S, F102Q, I105L
B12: SR16 (VHH)
VHH: B6 VHH with A30K, A31K, E35T, N52T, M54K, D56T, Q57Y, F102Y, I105L
B13: SR25 (VHH)
VHH: B6 VHH with A30N, A31T, Y32A, E35V, N52Y, M54E, D56P, Q57I, Y59E, F102S
B14: SR2 (VHH)
VHH: B1 VHH with G30K, L52E, E54N, N56H, A97Y, A102Q, T103S
B15: SR3 (VHH)
VHH: B6 VHH with A30W, A31Q, Y32E, N52T, M54Y, Q57T, Y97V, F102G, S103T
B16: SR17 (VHH)
VHH: B6 VHH with A30E, A31G, Y32S, N52E, M54N, D56T, Q57H, Y59H, F102A, S103G
B17: SR13 (VHH)
VHH: B6 VHH with A30D, A31Y, Y32M, Y37F, N52T, M54N, D56R, Q57E, I70V, F102S
B18: SR12 (VHH)
VHH: B6 VHH with A30N, A31M, Y32Q, N52S, M54T, D56W, Q57V, F102A
B19: SR28 (VHH)
VHH: B6 VHH with A30K, A31M, Y32A, N52Q, M54A, D56R, Q57E, F102A, S103G
B20: SR24 (VHH)
VHH: B1 VHH with G30N, Q31A, Q32M, L52M, N56T, G57W, A97Y, T103S
B21: SR26 (VHH)
VHH: B6 VHH with A30N, A31T, Y32R, N52S, M54N, D56H, Q57K, F102R
B22: SR30 (VHH)
VHH: B6 VHH with A30R, A31K, Y32H, N52S, M54K, D56S, Q57N, F102A
B23: SR21 (VHH)
VHH: B6 VHH with A30S, A31K, Y32T, N52A, M54A, D56A, Q57E, F102Q
B24: SR22 (VHH)
VHH: B6 VHH with A31S, Y32H, N52A, M54S, D56Q, Q57W, F102Q
B25: SR15 (VHH)
VHH: B6 VHH with A30K, A31H, Y32A, N52S, M54N, D56S, Q57E, Y99W, F102Q
B26: SR11 (VHH)
VHH: B6 VHH with A30Y, A31S, Y32M, N52S, M54W, D56N, Q57E, Y59H, F102A
B27: SR8 (VHH)
VHH: B6 VHH with A30Y, A31K, Y32R, E35T, N52S, M54K, D56V, Q57H, Y59E, F102K
B28: SR5 (VHH)
VHH: B6 VHH with S21R, A30E, A31T, Y32T, N52S, M54Y, D56S, Q57E, F102T, I105L
B29: SR20 (VHH)
VHH: B6 VHH with A30T, A31S, N52A, M54W, D56Y, Q57H, F102G
B30: SR14 (VHH)
VHH: QVQLVESGGGLVQAGGSLRLSCAASGFPVDSEEMTWYRQAPGKEREWVAAITSDGDITEYADSVKGRFTISRDNAKNTVYLQMNSLKPEDTAVYYCYVWVGRSYLGQGTQVTVS
B31: SR27 (VHH)
VHH: QVQLVESGGGLVQAGGSLRLSCAASGFPVWEAEMEWYRQAPGKEREWVAAISSIGTSTAYADSVKGRFTISRDNAKNTVYLQMNSLKPEDTAVYYCIVYVGKTYIGQGTQVTVS

This test deals with SARS-CoV-2 S-RBD with Avi-tag and deca-His tag (residues 330-531) (SARS-CoV-2, UniProt P0DTC2, biotin on the Avi tag (BirA) where immobilised on streptavidin sensors or used in ELISA and FSEC).
On to B1, for which the binding result was “binds”.

As for B2, the binding result is “binds”.

Consider B3, for which the binding result was “binds”.

Consider B4, for which the binding result was “binds”.

In the case of B5, the binding result is “binds”.

With B6, the binding result is listed as “binds”.

Turning to B7, the binding result was “binds”.

B8: the binding result was “binds”.

For the molecule B9, the binding result is “binds”.

Regarding B10, the binding result is given as “binds”.

For B11, the binding result is listed as “binds”.

As for B12, the binding result is given as “binds”.

Turning to B13, the binding result is “binds”.

As for B14, the binding result was “binds”.

Consider B15, for which the binding result is “binds”.

As to B16, the binding result is reported as “binds”.

Turning to B17, the binding result is recorded as “binds”.

With B18, the binding result is “binds”.

As to B19, the binding result is reported as “binds”.

On to B20, for which the binding result is “binds”.

Take B21: the binding result is listed as “binds”.

Turning to B22, the binding result was “binds”.

With B23, the binding result was “binds”.

For the molecule B24, the binding result was “binds”.

For the molecule B25, the binding result is reported as “binds”.

In the case of B26, the binding result is “binds”.

B27: the binding result is given as “binds”.

For B28, the binding result is given as “binds”.

As for B29, the binding result is listed as “binds”.

With B30, the binding result is given as “binds”.

Turning to B31, the binding result is listed as “binds”.
